Measurements: US20160046725A1 (PIERRE FABRE MEDICAMENT, published 2016)
Numbering of substitutions follows the chain as printed.

B1: 110D7 anti-Axl monoclonal antibody (antibody, V domains shown)
VH: EVKLVESGGGLVQPGGSLKLSCATSGFTFSDYYMYWVRQTPEKRLEWVAYISNGGGSTYYPDTVKGRFTMSRDNAKNTLYLQMSRLKSEDTAMYYCARLSFYAMDYWGQGTSVTVSS
VL: DIVMTQSHKFMSTSVGDRVSITCKASQDVTTAVAWYQQKPGQSPKLLIYWASTRHTGVPDRFTGSGSGTDYTLTISSVQAEDLALYYCQQHYRIPFTFGSGTKLEIK
notes: Murine monoclonal antibody purified from a hybridoma; a mIgG1 isotype control (9G4) is used beside it; also called m110D7; monoclonal antibody 110D7 derived from the hybridoma I-3959
B2: 1024G11 anti-Axl monoclonal antibody (antibody, V domains shown)
VH: EVKLVESGGGLVQPGGSLNLSCAASGFTFSSYSMSWVRQTPEKRLEWVAFISNGGGRTYYPDTVKGRFTFSRDNARNTLYLQMSSLNSEDTAMYFCARGTTESYYAMDYWGQGTSVTVSS
VL: B1 VL with T30I, Y87F, Y92L, R93S, I94T, F96L, S100A, I106L
notes: Murine monoclonal antibody purified from a hybridoma; a mIgG1 isotype control (9G4) is used beside it; also called monoclonal antibody 1024G11 derived from the hybridoma I-4501
B3: 1003A2 anti-Axl monoclonal antibody (antibody, V domains shown)
VH: B2 VH with N19K, S30N, F50Y, V64I, F70L, A75D, N87K, F95Y, M107L
VL: B1 VL with V15L, V19I, T30I, T72N, Y92F, R93S, I94T, F96L, S100A, I106L
notes: Murine monoclonal antibody purified from a hybridoma; a mIgG1 isotype control (9G4) is used beside it; also called monoclonal antibody 1003A2 derived from the hybridoma I-4499

target: T1, human Axl receptor on human tumor cells (human, UniProt P30530 26-894); assay: cell-based or functional assay
T1 sequence: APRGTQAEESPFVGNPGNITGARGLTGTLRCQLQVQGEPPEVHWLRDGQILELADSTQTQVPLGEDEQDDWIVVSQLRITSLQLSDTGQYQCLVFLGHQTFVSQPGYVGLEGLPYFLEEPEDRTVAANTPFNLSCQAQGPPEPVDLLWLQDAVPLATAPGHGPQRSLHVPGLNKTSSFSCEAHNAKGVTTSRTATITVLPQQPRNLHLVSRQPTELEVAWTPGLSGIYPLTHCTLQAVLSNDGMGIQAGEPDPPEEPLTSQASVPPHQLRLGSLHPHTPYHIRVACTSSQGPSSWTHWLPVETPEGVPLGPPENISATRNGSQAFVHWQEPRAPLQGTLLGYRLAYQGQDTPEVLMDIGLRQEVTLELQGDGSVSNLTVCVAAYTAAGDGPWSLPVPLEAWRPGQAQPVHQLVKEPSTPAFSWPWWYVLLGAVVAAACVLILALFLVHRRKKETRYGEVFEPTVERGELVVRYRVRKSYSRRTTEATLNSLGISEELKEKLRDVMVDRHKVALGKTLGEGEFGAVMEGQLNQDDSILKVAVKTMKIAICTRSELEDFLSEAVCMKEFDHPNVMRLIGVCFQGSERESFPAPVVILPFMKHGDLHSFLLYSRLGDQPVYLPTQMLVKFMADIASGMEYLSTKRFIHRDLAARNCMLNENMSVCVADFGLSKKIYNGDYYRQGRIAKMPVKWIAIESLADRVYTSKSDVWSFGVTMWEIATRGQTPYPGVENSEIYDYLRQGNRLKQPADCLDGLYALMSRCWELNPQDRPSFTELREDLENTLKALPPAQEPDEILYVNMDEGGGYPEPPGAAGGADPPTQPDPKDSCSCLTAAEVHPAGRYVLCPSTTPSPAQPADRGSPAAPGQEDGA

Going from B1 to B2, the “Axl down-regulation at 4 h (western blot, SN12C)” value rises from 50% to 68%.

In the case of B3, the “Axl down-regulation at 4 h (western blot, SN12C)” value is reported as 66%.

Compared with B1, B2 is higher in “Axl down-regulation at 24 h (western blot, SN12C)” value: 84% for the first, 85% for the second.

For B3, the “Axl down-regulation at 24 h (western blot, SN12C)” value was 89%.

First: B1
Second: B2
The “maximal cytotoxic effect on SN12C cells (Mab-Zap assay)” value of the first is higher: about 49% for the first, about 40% for the second.

B3 was tested, and the “maximal cytotoxic effect on SN12C cells (Mab-Zap assay)” value was about 37%.

target: T1, human Axl receptor on human tumor cells; assay: cell-based or functional assay; remark: another data set of the same source

First: B1
Second: B2
The “% remaining Axl” value of the first is lower: 29.8% for the first, 45.5% for the second.

For B3, the “% remaining Axl” value was 35%.

Compared with B1, B2 is lower in “Δ (MFI No Ab 24 h - MFI Ab 24 h)” value: 588 MFI for the first, 478 MFI for the second.

For B3, the “Δ (MFI No Ab 24 h - MFI Ab 24 h)” value was 505 MFI.

target: T2, recombinant human Axl-Fc protein (R and D Systems, cat N° 154-AL) (human, UniProt P30530 26-451); assay: competition ELISA, rhAxl-Fc on coated rhGas6 (competitor: Gas6)
T2 construct: Bought construct; An anti-Histidine coating control hints at a His tag, not described; also called rhAxl-Fc; rh Axl-Fc; not shown: human Fc portion of the bought fusion
T2 sequence: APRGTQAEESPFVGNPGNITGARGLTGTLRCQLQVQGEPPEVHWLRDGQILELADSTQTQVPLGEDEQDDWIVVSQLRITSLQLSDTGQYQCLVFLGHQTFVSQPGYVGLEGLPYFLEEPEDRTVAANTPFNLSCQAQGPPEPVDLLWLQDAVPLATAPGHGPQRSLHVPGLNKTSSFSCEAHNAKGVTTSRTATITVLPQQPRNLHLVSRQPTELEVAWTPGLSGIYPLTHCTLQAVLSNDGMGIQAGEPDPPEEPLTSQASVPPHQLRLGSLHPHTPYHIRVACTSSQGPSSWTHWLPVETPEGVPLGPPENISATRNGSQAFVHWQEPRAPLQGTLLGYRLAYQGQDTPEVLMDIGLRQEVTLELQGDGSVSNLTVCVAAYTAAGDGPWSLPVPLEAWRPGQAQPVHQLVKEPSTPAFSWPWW
Description: To further characterize the anti-Axl Mabs, Gas6 competition assays were performed. In this assay, the free rhAxl-Fc protein and the anti-Axl antibody are incubated to form antigen-antibody complex and then the complexes are loaded on Gas6-coated surface in the assay plate. The unbound antibody-antigen complexes are washed off before adding enzyme-linked secondary antibody against the human Fc portion of the rhAxl-Fc protein. The substrate is then added and the antigen concentration can then be determined by the signal strength elicited by the enzyme-substrate reaction.
Briefly reaction mixture comprising the rhAxl-Fc protein in presence or not of the Mabs to be tested, are prepared on a separate saturated (0.5% gelatin in PBS 1×) plate. Serial 1: 2 dilutions (starting from 80 μg/ml on 12 columns) of murine Axl antibodies (110D7, 1003A2 and 1024G11) are performed. Then 0.5 μg/ml of the rhAxl-Fc protein is added (R and D Systems, ref 154AL/CF), except to the negative control line that contains only ELISA diluant (0.1% gelatin, 0.05% Tween 20 in PBS 1×). After homogenisation, the competition samples are loaded on Gas6-coated plates with a 6 μg/ml rhGas6 solution in PBS (R and D Systems cat N° 885-GS-CS/CF). After incubation and several washes, bound rhAxl-Fc proteins are detected using a goat anti-Human IgG-HRP (Jackson, ref 109-035-098). Once bound, the TMB substrate is added to the plates. The reaction is stopped by addition of H₂SO₄ acid solution and the obtained optical densities read at 450 nm using a microplate reader instrument.

B1 and B2 cannot be ordered by “antibody concentration above which competition with Gas6 binding occurs” value: over 16.7 nM for the first, over 16.7 nM for the second.

With B3 the “antibody concentration above which competition with Gas6 binding occurs” value was over 16.7 nM.
